The results in this text go back to US20220143204A1 (LINXIS B V, published 2022).

Where a chain is given by its changes, count along the chain named.

T1: rat PDGFRB extracellular domain (rat, UniProt Q05030 32-531)
T1 construct: extracellular domain; also called rPDGFRB-ECD; rat PDGFRB ectodomain
T1 sequence (looked up): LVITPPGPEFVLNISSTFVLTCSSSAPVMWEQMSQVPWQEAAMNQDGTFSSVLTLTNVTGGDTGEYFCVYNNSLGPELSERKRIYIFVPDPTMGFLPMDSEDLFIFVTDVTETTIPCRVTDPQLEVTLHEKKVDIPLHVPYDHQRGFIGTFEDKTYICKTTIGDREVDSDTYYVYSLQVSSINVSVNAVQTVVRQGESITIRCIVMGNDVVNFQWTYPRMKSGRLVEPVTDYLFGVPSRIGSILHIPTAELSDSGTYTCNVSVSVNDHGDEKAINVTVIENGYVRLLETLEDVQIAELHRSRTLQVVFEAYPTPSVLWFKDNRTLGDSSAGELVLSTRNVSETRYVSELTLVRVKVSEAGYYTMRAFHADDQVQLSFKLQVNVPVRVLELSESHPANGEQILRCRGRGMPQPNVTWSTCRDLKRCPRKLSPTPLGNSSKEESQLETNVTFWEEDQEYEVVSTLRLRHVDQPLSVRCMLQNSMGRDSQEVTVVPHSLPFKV

B1: SP01P (VHH)
VHH: EVQLVESGGGLAQAGGSLRLSCVASGNIDSANGMAWYRQAPGKQRELVAHITSGTSYYVASVEGRFTISRANAKDTWYLQMNSLKPEDTGVYYCFPIGLSAHWSQGTQVTVSS
notes: Llama VHH; on phage in the phage ELISA
B2: SP23P (VHH)
VHH: EVQLVESGGELVQAGGSLRLSCAVSGRTLTSYPMGWFRQAPGKEREFVAAISWSGGDTMYADSVKGRFTISRDNSKNTVYLQMNSLKPEDTADYYCARRRYSSGISRHLVDYEYWGQGTQVTVSS
notes: as for B1
B3: SP13P (VHH)
VHH: EVQLVESGGGLVQPGGSLRLSCAASESIFSINYMAWYRQAPGKQRELVAFSIDGSSTNYVDSVRGRFTASRDNAENTLYLQMNSLKPEDTAVYYCYAQGNTWAAGVWGQGTQVTVSS
notes: as for B1
B4: SP15P (VHH)
VHH: EVQLVESGGGLVQAGGSLRLSCAASGRAFGGPYMAWFRQTPGKGREFVAAISPSSVYTFYQDSVKGRFTISRDNTKNTAYLQMNSLKPEDTAVYYCAAEAAGEVRLETSYKYWGQGTQVTVSS
notes: as for B1
B5: SP14P (VHH)
VHH: EVQLVESGGGLVQAGDSLRLSCVVSGLTFSRYGMGWFRQATGKEREFVGGISVGSSGTMYPNSVKGRFTISRDNAKSTVYLQMNSLKPEDTAVYFCAAIDQGSFVQQRDYRYWGQGTQVTVSS
notes: as for B1
B6: SP11P (VHH)
VHH: EVQLVESGGGLVQAGDSLRLSCAASGRTFSSYPIAWFRQAPGKEREFVAAITSSGLTTYYANVVKGRFAISRDNAKDTVYLQMNSLKPEDTAVHYCATSNGFLSGRDIYQHNKYIYWGQGTQVTVSS
notes: as for B1
B7: SP07P (VHH)
VHH: EVQLVESGGGSVQTGGSLRLSCAASGRSFSTYAMAWFRQAPGKEREFVAAINRRATDTVYADSAKGRFIISRDNDKNTVYLQMDSLKTEDTAVYYCAAAKNAYDWRWDRLRDRDYWGQRGQGTQVTVSS
notes: as for B1
B8: SP17P (VHH)
VHH: EVQLVESGGGLVQPGGSLRLSCAASGLTFVNYAMGWFRQAPGKERELVAGIASSGRIYYADSVAGRFTISRDNARNTVNLQMNSMKPEDTAVYYCAGRRSFSSTSAADYNYWGQGTQVTVSS
notes: as for B1
B9: SP21P (VHH)
VHH: EVQLVESGGGLVQPGGSLRLSCVVSGSSFSSYTMGWFRRAPGKQRELVAGVSTVGDTAAADSVKGRFTISRDNAKNTVYLQMNSLKPEDTAVYYCNTYPHAYLEWGQGTQVTVSS
notes: as for B1
B10: SP05P (VHH)
VHH: EVQLVESGGGLVQAGGSLRLSCAASGRTSFSGYAMAWFRQAPGKERDFVASITWSYGYTYYTDSAQGRFTISRDSAKNTVYLEMNSLKPEDTAVYYCAADPKASRFRILREYAYWGQGTQVTVSS
notes: as for B1
B11: SP20P (VHH)
VHH: EVQLVESGGGLVQAGGSLRLSCVISGRTSPTYPMGWFRQSPGNEREFVASINWSGGWRNYADSVKDRFTISRDDAKNTVYLQMNSLKPEDTAVYYCARGQYSSGTPVYAHEYAYWGQGTQVTVSS
notes: as for B1
B12: SP10P (VHH)
VHH: EVQLVESGGGLVQAGGSLRLSCAASGRTFNGYAMGWFRQAPGKERDFVAAITWSYGYTHYAESVKGRFSISRDSANNMVYLEMNSLKPEDTAVYYCAADPKASRFRTLRRYDYWGQGTQVTVSS
notes: as for B1
B13: SP08P (VHH)
VHH: EVQLVESGGGLVQAGGSLRLSCAASGRTFNGYAMAWFRQAPGKERDFVASITWSYGYTYYADSAQGRFTISRDSAKNTVYLEMNSLKPEDTAVYYCAADPKASRFRILRQYAHWGQGTQVTVSS
notes: as for B1
B14: SP12P (VHH)
VHH: B11 VHH with D66G
notes: as for B1
B15: SP31P (VHH)
VHH: EVQLVESGGGLVQAGGSLRLSCAASRGTFGTYIMGWFRQAPGKEREFVAAISWRGANTYYGYSVKGRFTISRDNAKNTMYLQMADLKPEDTADYYCGVHLNGTPYYYASGYRYWGQGTQVTVSS
notes: as for B1
B16: SP36P (VHH)
VHH: EVQLVESGGGLVQAGGSLRLSCTPSITTAGTTIMAWFRQAPGNEREFVAAIWGSKTAYGDSMKGRLTISRDNVRDNGQKTVFLQMNNLQLQDTATYYCAASSGGYVHSSTSYEIWGRGTQVTVSS
notes: as for B1
B17: SP30P (VHH)
VHH: B15 VHH with Y32D
notes: as for B1
B18: SP35P (VHH)
VHH: EVQLVESGGGLVQPGGSLRLSCAASGSLGSNNPMAWYRQAPGKERELVASISSAYRTHYADFVKGRFTISRDSPKNTVSLQMNNLKPEDTAVYYCGIFVSARNYWGKGTQVTVSS
notes: as for B1
B19: SP25P (VHH)
VHH: EVQLVESGGGLVQPGGSLRLSCAASESIFSINAMGWYRQTPGKQREMVASITPGGFTIYADSVKGRFTISRDNAKNTLYLQMNNLRFEDTAVYYCNAFAGSATSYHDFGSWGQGTQVTVSS
notes: as for B1
B20: SP27P (VHH)
VHH: EVQLVESGGGLVQIGDSLRLSCAASGGTFNRYGMGWFRQAPGKEREFVAAIRWDGVDTNYADFVKGRFTISRYNAKNTAYLQMNSLKPEDTAVYYCAADRRGLYTKHAHRYDYWGQGTQVTVSS
notes: as for B1
B21: SP32P (VHH)
VHH: EVQLVESGGGTVQAGDSLRLSCTASGRTFSTYTMGWFRQAPGKERVVVAVNTWNNFTVHQPSVKGRFTMSRDNTKNSIYLQMDSLKPEDTAVYYCAASAKGTARYDYWGQGTQVTVSS
notes: as for B1
B22: SP29P (VHH)
VHH: EVQLVESGGGLVQAGDSLRLSCTVSGRTFNTYVTGWFRQAPGKEREFVAAIHQIGSTYYRNSVKGRFTISRDGAKDTVYLQMNNLKPEDSAVYYCAAGNGGYVMSDIAYGTWGQGTQVTVSS
notes: as for B1

The target in one assay is T2, human PDGFRB extracellular domain (human, UniProt P09619 33-532).
T2 construct: extracellular domain; also called hPDGFRB-ECD; human PDGFRB ectodomain
T2 sequence (P09619 33-532): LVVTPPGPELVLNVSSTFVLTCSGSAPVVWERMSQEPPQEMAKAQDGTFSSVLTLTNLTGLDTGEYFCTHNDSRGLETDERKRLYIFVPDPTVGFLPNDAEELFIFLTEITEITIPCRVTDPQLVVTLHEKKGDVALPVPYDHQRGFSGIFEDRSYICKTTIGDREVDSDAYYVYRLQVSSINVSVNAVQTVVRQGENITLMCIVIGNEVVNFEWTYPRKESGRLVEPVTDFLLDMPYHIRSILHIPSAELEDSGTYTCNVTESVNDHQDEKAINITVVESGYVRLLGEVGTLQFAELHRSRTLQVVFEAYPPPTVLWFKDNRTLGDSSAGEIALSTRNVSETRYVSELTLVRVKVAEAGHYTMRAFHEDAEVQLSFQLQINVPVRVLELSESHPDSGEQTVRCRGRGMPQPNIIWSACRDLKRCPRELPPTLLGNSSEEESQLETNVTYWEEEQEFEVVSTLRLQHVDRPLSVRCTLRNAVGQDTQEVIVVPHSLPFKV
Description: binding assay on immobilised human PDGFRB ectodomain, apparent affinity (Example 4).
In the case of B1, the Kd was 20.4 nM.
As for B2, the binding result is given as “binds”.
For the molecule B3, the Kd was 9.3 nM.
In the case of B4, the binding result is reported as “binds”.
With B5, the Kd is 8.6 nM.
On to B6, for which the binding result is “binds”.
For B7, the Kd worked out at 10.1 nM.
B8: the binding result was “binds”.
In the case of B9, the binding result is “binds”.
In the case of B10, the Kd was found to be 9.2 nM.
On the same count and under the same terms, next, B11: 3.8 nM.

For another assay, the target named is T3, human PDGFRB on SCC VII cells (human, UniProt P09619 33-1106).
T3 construct: whole, on cells; also called hPDGFRB; SCC-hPDGFRB
T3 sequence (P09619 33-1106): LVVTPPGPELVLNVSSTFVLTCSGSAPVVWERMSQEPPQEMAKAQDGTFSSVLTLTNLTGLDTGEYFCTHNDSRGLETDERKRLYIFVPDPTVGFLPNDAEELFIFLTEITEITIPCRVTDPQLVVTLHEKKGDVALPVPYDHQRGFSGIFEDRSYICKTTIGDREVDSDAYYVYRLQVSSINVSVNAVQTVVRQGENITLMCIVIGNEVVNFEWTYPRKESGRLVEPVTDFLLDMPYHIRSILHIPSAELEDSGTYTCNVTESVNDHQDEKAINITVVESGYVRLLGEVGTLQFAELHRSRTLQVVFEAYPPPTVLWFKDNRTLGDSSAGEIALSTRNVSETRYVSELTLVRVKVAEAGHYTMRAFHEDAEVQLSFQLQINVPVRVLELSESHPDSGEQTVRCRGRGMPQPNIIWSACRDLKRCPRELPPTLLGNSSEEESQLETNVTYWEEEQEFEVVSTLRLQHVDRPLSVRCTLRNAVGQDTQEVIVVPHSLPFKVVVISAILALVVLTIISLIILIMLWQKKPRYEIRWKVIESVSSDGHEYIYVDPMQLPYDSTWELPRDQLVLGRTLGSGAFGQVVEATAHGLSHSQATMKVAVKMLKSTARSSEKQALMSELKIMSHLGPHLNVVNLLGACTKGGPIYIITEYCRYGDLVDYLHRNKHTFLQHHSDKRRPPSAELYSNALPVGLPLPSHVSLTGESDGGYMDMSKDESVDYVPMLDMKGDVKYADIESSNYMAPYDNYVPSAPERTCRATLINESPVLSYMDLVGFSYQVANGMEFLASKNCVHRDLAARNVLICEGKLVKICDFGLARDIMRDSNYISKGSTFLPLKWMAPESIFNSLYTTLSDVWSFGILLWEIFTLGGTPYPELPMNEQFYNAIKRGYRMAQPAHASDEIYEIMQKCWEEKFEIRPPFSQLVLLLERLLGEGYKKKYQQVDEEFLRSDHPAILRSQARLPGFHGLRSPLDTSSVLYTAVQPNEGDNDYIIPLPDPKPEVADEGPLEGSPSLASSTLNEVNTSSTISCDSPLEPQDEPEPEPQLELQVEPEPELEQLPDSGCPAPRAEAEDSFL
Kind of assay: binding assay on SCC VII cells transfected with human PDGFRB (Example 4).
B1 registered a Kd of 7.8 nM.
B3 registered a Kd of 10.4 nM.
The molecule B5 had a Kd of 0.6 nM.
In the case of B12, the Kd was 0.9 nM.
For B7, the Kd was determined as 62.3 nM.
B13 gave a Kd of 0.5 nM.
Still for that read-out and setting: next, B10: 1.4 nM; B14: 0.3 nM.
B11 came in with a Kd of 1 nM.

In the next assay the target is T4, human PDGFRB on LX-2 cells (human, UniProt P09619).
T4 construct: full-length receptor on the cell surface; The list has human PDGFRB only on SCC VII cells
T4 sequence (P09619 33-1106 limits assumed): as the sequence (P09619 33-1106) above
Description: binding assay on the human hepatic stellate cell line LX-2 (Example 4).
Molecule B5 came in with a Kd of 3.1 nM.
B13 had a Kd of 60.2 nM.
On to B10, for which the Kd stood at 193 nM.
On to B14, for which the Kd amounted to 0.6 nM.
In turn, B11 registered a Kd of 53.6 nM.

The target in the next assay is T5, rat PDGFRB on SCC VII cells (rat, UniProt Q05030 32-1097).
T5 construct: whole, on cells; also called rPDGFRB; SCC-rPDGFRB
Description: binding assay on SCC VII cells transfected with rat PDGFRB (Example 4).
The molecule B15 came in with a Kd of 31.8 nM.
As for B16, the Kd worked out at 76.6 nM.

In a further assay the target is T1, rat PDGFRB extracellular domain. Kind of assay: binding assay on immobilised rat PDGFRB ectodomain, apparent affinity (Example 4).
In the case of B15, the Kd came out at 276 nM.
For the molecule B17, the Kd came out at 12.2 nM.
As for B16, the Kd was found to be 31 nM.
B18: the binding result is “binds”.
The same measure, in the same setting: next, B19: “binds”.
For the molecule B20, the Kd was 25.5 nM.
With B21, the binding result was “binds”.
Regarding B22, the binding result was “binds”.
